# Residue numbers refer to the chain shown, from its start. Names and notes keep the numbering of the source. Values joined by “and” are separate entries in the source; they are usually repeats but may differ in a detail not shown here. Identical values can stand only once.
# B1: Uukuniemi virus nucleocapsid (N) protein, full-length wild type (pcDNA-UUKV-N) (natural protein)
# chain: MAMPENWVRFAIEISDAQWEEEEIREFINLFQYQGFDAAVVLSRIFELAKKADLSRDQMLRDIRALITLHLTRGNKLSSIEKRLSEEGKKEFALLKARYQLVDKAKEAADLTLSRIAIANAGLTCRILPQVVAHTAVTRSRMESLSADYPVCMMHNAFAGLIDETLPEDSIKALVDAHRLYLLEFSRTINVKHRGMEAKEILDANDSALQAGLASSFLTPSQKRAYLLSFKLVDGNGKVNKAVQQAATVLRSLI
# notes: Uukuniemi virus nucleocapsid (N) protein, 254 aa residues; No tag is mentioned; detected with a rabbit antiserum against UUKV-N; also called UUKV-N protein; wt N protein; source: COS-7, transfected (pcDNA-UUKV-N), in lysate
# B2: UUKV-N protein point mutant F31A, mammalian two-hybrid fusions (natural protein)
# chain: B1 chain with F31A
# notes: Uukuniemi virus nucleocapsid (N) protein, 254 aa residues; Mutation introduced into both the DNA-BD and the DNA-AD fusion; no chain carries both domains; source: HeLa, transfected, mammalian two-hybrid fusions
# B3: UUKV-N protein point mutant F10A, mammalian two-hybrid fusions (natural protein)
# chain: B1 chain with F10A
# notes: as for B2
# B4: UUKV-N protein point mutant W19A, mammalian two-hybrid fusions (natural protein)
# chain: B1 chain with W19A
# notes: as for B2
# B5: UUKV-N protein point mutant I24A, mammalian two-hybrid fusions (natural protein)
# chain: B1 chain with I24A
# notes: as for B2
# B6: UUKV-N protein point mutant R251A, mammalian two-hybrid fusions (natural protein)
# chain: B1 chain with R251A
# notes: Uukuniemi virus nucleocapsid (N) protein, 254 aa residues; source: HeLa, transfected, mammalian two-hybrid fusions
# B7: UUKV-N protein point mutant F27A, mammalian two-hybrid fusions (natural protein)
# chain: B1 chain with F27A
# notes: as for B2
# B8: UUKV-N protein point mutant Y33A, mammalian two-hybrid fusions (natural protein)
# chain: B1 chain with Y33A
# notes: Uukuniemi virus nucleocapsid (N) protein, 254 aa residues; Mutation introduced into both the DNA-BD and the DNA-AD fusion; no chain carries both domains; also called negative control mutant; source: HeLa, transfected, mammalian two-hybrid fusions
# B9: UUKV-N protein point mutant I14A, mammalian two-hybrid fusions (natural protein)
# chain: B1 chain with I14A
# notes: as for B2
# B10: UUKV-N protein double mutant QQ244,245AA, mammalian two-hybrid fusions (natural protein)
# chain: B1 chain with Q244A, Q245A
# notes: as for B6
# B11: UUKV-N protein point mutant W7A, mammalian two-hybrid fusions (natural protein)
# chain: B1 chain with W7A
# notes: as for B2
# Biological target: the molecule itself
# Experiment: cross-linking; lysates of transfected COS-7 cells (PBS pH 7.4, freeze-thawed), 0.1 or 0.5 mM BS3, 30 min at room temperature, quenched with 50 mM Tris-HCl pH 7.5; 10% SDS-PAGE, immunoblot with rabbit antiserum against UUKV-N
row,Protein,stoichiometry N
1,B1,2 and 3

# Biological target: the molecule itself
# Experiment: two-hybrid; mammalian two-hybrid in HeLa cells: GAL4 DNA-BD (pM) and VP16 DNA-AD (pVP) fusions, pG5luc firefly luciferase normalised to Renilla luciferase, 24 h post-transfection; percent of the wt N-N interaction
row,Protein,M2H % of interaction [%]
1,B2,23 ± 5
2,B3,34 ± 4
3,B4,> 100
4,B5,56 ± 12
5,B6,96 ± 11
6,B7,> 100
7,B8,> 100
8,B9,60 ± 18
9,B10,> 100
10,B11,> 100

# Reference: publication PMC2925374, “Oligomerization of Uukuniemi virus nucleocapsid protein” (Virology Journal, 2010)
